We go through 1 protein from US20130058939.

The data set addresses mouse NMDA receptor NR1 subunit, P35438.

B1: rt-PA (alteplase), recombinant human t-PA (protein)
chain: SYQVICRDEKTQMIYQQHQSWLRPVLRSNRVEYCWCNSGRAQCHSVPVKSCSEPRCFNGGTCQQALYFSDFVCQCPEGFAGKCCEIDTRATCYEDQGISYRGTWSTAESGAECTNWNSSALAQKPYSGRRPDAIRLGLGNHNYCRNPDRDSKPWCYVFKAGKYSSEFCSTPACSEGNSDCYFGNGSAYRGTHSLTESGASCLPWNSMILIGKVYTAQNPSAQALGLGKHNYCRNPDGDAKPWCHVLKNRRLTWEYCDVPSCSTCGLRQYSQPQFRIKGGLFADIASHPWQAAIFAKHRRSPGERFLCGGILISSCWILSAAHCFQERFPPHHLTVILGRTYRVVPGEEEQKFEVEKYIVHKEFDDDTYDNDIALLQLKSDSSRCAQESSVVRTVCLPPADLQLPDWTECELSGYGKHEALSPFYSERLKEAHVRLYPSSRCTSQHLLNRTVTDNMLCAGDTRSGGPQANLHDACQGDSGGPLVCLNDGRMTLVGIISWGLGCGQKDVPGVYTKVTNYLDWIRDNMRP
As to B1, the “net integrated increase in [Ca2+]i evoked by NMDA after 15 min exposure to t-PA (20 µg/ml)” value was “the net integrated increase in [Ca^2+]i (area under the curve expressed in arbitrary units) was enhanced by 37%”.
